How the values were obtained:
Thrombin [1] = target: T1, Thrombin (Homo sapiens, UniProt P00734); assay: Inhibitory action of hirudin against thrombin induced death; type: in vivo, mice; set-up: Thrombin (10 NIH unit/10 g) was administered intravenously to male mice; settings: for Score: score 0 normal, 1 disappearance of roll over reflection, 2 death within 20 minutes
Protocol: Thrombin (10 NIH unit/10 g) was administered intravenously to male mice (20-25 g), without anesthesia, and the anti-thrombin activity of the tested compound was evaluated by observing the disappearance of roll over reflection and death as indexes. All the tested compounds were dissolved in saline, and 0.05 ml/10 g were administered intravenously 5 min prior to the thrombin injection.

[2] = Prolongation of bleeding time (tail vein puncture wound); type: in vivo, mice; settings: for Bleeding time: wound 5 minutes after administration
Protocol: Samples were injected into male mice (20-25 g) under anesthesia using sodium pentobarbital (40 mg/kg i.p.) via their tail vein. A puncture wound was made by inserting a 21 G needle (outer diameter 0.85 mm) into the other side of the tail vein 5 minutes after the administration of the test compounds, and the bleeding time of the wound was measured. A filter paper was put on the wound, with changes every 15 seconds. Bleeding time is defined as the time required until no red spot is observed on the filter paper.

Thrombin [3] = target: T1, Thrombin; assay: anti-thrombin activity, chromogenic substrate chromozyme TH; type: biochemical; set-up: purchased Sigma; settings: purified by C4 reverse phase HPLC
Protocol: Precipitated cells of each sample were suspended in 1 ml of 50 mM Tris-HCl (pH7.5) containing 25% sucrose and 1 mM EDTA, followed by incubation at room temperature for 10 minutes. After collecting the cells by centrifugation at 6,000×g for 10 minutes, the cells were suspended in 1 ml of cold water to release the substances in the periplasmic space by osmotic shock. Cells were removed from the periplasmic fraction by centrifugation at 6,000×g for 10 minutes. The amount of secreted and periplasmically-accumulated hirudin was determined by measuring the anti-thrombin activity in the supernatant. The antithrombin activity is based on quantitative measurement of the color intensity generated by thrombin's hydrolytic activity on the synthetic chromogenic substrate chromozyme TH (Tocylglycil-prolylarginine-4-nitroanilideacetate, Boeringer-Mannheim) and hirudin's inhibitory activity against thrombin, which will repress color generation.
This reaction was carried out as follows. […]
Both the substrate and chromozymeTH were added to a final concentration of 200 μM to measure the release of p-nitroanilide by the increase of absorbance at 405 nm of the solution per 1 minute, and the anti-thrombin activity (ATU) was calculated.

With “HV1: hirudin variant 1, natural anti-coagulation peptide of Hirudo medicinalis, produced here by secretion from E. coli [reference compound]” the Score (Thrombin [1]; 200 μg/10 g weight i.v. 5 min prior to thrombin 10 NIH unit/10 g) was 0.6 and the Score (Thrombin [1]; 500 μg/10 g weight i.v. 5 min prior to thrombin 10 NIH unit/10 g) was 0.4.

B1: HV1C3: hirudin analog having the hirudin HV1 amino acid sequence up to the 52nd amino acid and thereafter substituted with the sequence of HV3 (protein)
chain: VVYTDCTESGQNLCLCEGSNVCGQGNKCILGSDGEKNQCVTGEGTPKPQSHNQGDFEPIPEDAYDE
With B1 the Bleeding time ([2]; 50 μg/10 g weight i.v.) was 264.0 ± 17.6 s, the Bleeding time ([2]; 100 μg/10 g weight i.v.) was 291.0 ± 30.2 s and the Bleeding time ([2]; 200 μg/10 g weight i.v.) was 369.0 ± 34.9 s. For the same molecule, the “bleeding tendency compared with hirudin HV1” value ([2]; mice, in words) was “less bleeding than hirudin HV1”, the “anti-thrombin activity (specific / relative activity) of purified product” value (Thrombin [3]) was 11,250 ATU/mg and the Score (Thrombin [1]; 20 μg/10 g weight i.v. 5 min prior to thrombin 10 NIH unit/10 g) was 1.2. The Score (Thrombin [1]; 50 μg/10 g weight i.v. 5 min prior to thrombin 10 NIH unit/10 g) was 0.6, the Score (Thrombin [1]; 100 μg/10 g weight i.v. 5 min prior to thrombin 10 NIH unit/10 g) was 0.4 and the “inhibitory activity compared with hirudin HV1 in thrombin induced death” value (Thrombin [1]; in vivo, mice, relative to HV1) was 4-5 times.

B2: HV3: natural hirudin variant of 66 amino acids, produced here by secretion from E. coli (protein)
chain: ITYTDCTESGQNLCLCEGSNVCGKGNKCILGSQGKDNQCVTGEGTPKPQSHNQGDFEPIPEDAYDE
With B2 the “anti-thrombin activity (specific / relative activity) of purified product” value (Thrombin [3]) was 8139 ATU/mg.
